Source: patent US20230086530A1 (SHANGHAI ESCUGEN BIOTECHNOLOGY, published 2023)
Like-named read-outs stand apart in the source and are kept apart here.

Columns and labels:
[1] = target: T1, CD47 on human erythrocytes (human, UniProt Q08722 19-323); experiment: flow cytometry, human erythrocytes, second individual
T1 construct: whole, on cells; Kept apart from m1 because the same antibodies behave differently on these cells

[2] = target: T2, CD47 on cynomolgus macaque erythrocytes (cynomolgus macaque, UniProt A0A5F8AK49 19-323 (rhesus entry)); experiment: flow cytometry on cynomolgus macaque erythrocytes of 4 animals
T2 construct: whole, on cells

CD47 on human platelets [3] = target: T3, CD47 on human platelets (human, UniProt Q08722 19-323); experiment: flow cytometry, human platelets
T3 construct: whole, on cells
Method: (§1) After the platelets were counted with a hemocytometer, the density of the platelets was adjusted to 1.5×10⁷/mL with PBS+1% FBS, and 100 μL of above sample was added to each well of a 96-well U-shaped plate. […] After incubating at 4° C. for 1 h, the samples were centrifuged at 1000 rpm for 3 mins and rinsed once with PBS+1% FBS. 100 μl of 1:1000 diluted goat anti-human IgG (H+L)-AlexaFluor488 (purchased from eBioscience, Cat. No. A11013) was added to each well, and incubated at 4° C. for 45 mins. The samples were centrifuged at 1000 rpm for 3 mins, rinsed twice with PBS+1% FBS, resuspended in 200 μl of PBS+1% FBS, and transferred to a flow tube for on-board detection.

[4] = target: T4, biotinylated-CD47 (ACRO Biosystems Cat. No. CD7-H82E9) (UniProt Q08722 19-139, biotinylated (site not stated)); experiment: competition ELISA; blocked: biotinylated-CD47 binding to coated SIRPα-His
T4 construct: also called CD47 recombinant protein
Method: After rinsing 4 times with PBST, 200 μl of PBS+1% BSA was added to each well, blocking for 1 h at room temperature, and rinsing 4 times with PBST. […] The 96-well plate was rinsed 4 times with PBST, 100 μl of Steptavidin-HRP (Invitrogen #434323) diluted 1:2500 was added to each well, and incubated at room temperature for 1 h. After rinsing the 96-well plate four times with PBST, 100 μl of TMB substrate (Cell Signaling, Cat. No. 7004) was added to each well, and after color development at room temperature for 10 mins, 50 μl of stop solution was added to stop the reaction.

CD47 on human platelets [5] = target: T3, CD47 on human platelets; experiment: flow cytometry, human platelets; remark: listed apart in the source
Method: as §1

[6] = target: T5, Human CD47 recombinant protein (Human CD47 His Tag), ACRO Biosystems Cat. No. CD7-H5227 (human, UniProt Q08722 19-139); experiment: SPR BIAcore 8K, antibody captured by anti-human IgG Fc on CM5, huCD47 (His tag) in flow, 25 C, 1:1 model
T5 construct: bought protein; also called huCD47-His; huCD47; not shown: His tag
Method: The binding time of the huCD47 to the antibody was 180 s, the dissociation time was 900 s, and the reaction temperature was 25° C. The binding constant ka, the dissociation constant kd and the affinity KD were calculated by FitGlobal using BIAcore 8K Evaluation software (GE Healthcare) according to the 1:1 binding model.

[7] = target: T1, CD47 on human erythrocytes; experiment: flow cytometry, human erythrocytes
[8] = target: T6, CD47 on cynomolgus macaque platelets (cynomolgus macaque, UniProt A0A5F8AK49 19-323 (rhesus entry)); experiment: flow cytometry, cynomolgus macaque platelets, animal 567#
T6 construct: whole, on cells

[9] = target: T6, CD47 on cynomolgus macaque platelets; experiment: flow cytometry, cynomolgus macaque platelets, animal 186#
[10] = target: T6, CD47 on cynomolgus macaque platelets; experiment: flow cytometry, cynomolgus macaque platelets, animal 194#
[11] = target: T1, CD47 on human erythrocytes; experiment: flow cytometry, human erythrocytes, first individual
[12] = target: T7, human CD47 on the cell membrane surface of CD47 positive tumor cells (Raji, NUGC-4, Jurkat) (human, UniProt Q08722 19-323); experiment: FACS on Raji cells, VHH 0.05 µg/mL
T7 construct: whole, on cells; also called huCD47 on the cell membrane surface; cell surface CD47
Method: (§2) Antibodies that can bind to CD47 positive cells were screened by flow cytometry (FACS). Human Burkitt's lymphoma cells Raji (purchased from the Cell Bank of the Chinese Academy of Sciences, Cat. No. TCHu 44) were cultured in RPMI-1640 medium (purchased from Gibco, Cat. No. 11875-093) comprising 10% fetal bovine serum FBS (purchased from Gibco, Cat. No. 1009141) at 37° C. with 5% CO₂.
(§3) Raji cells were collected by centrifugation at 800 rpm for 3 mins, rinsed once with PBS+1% FBS and resuspended for counting. In a 96-well plate, 1×10⁵ Raji cells were added to each well, and then the VHH (purified) samples were added in a gradient dilution. The final concentrations of VHH were 5, 0.5, and 0.05 μg/mL, respectively. After mixing, it was mixed with Raji cells and incubateed at room temperature for 1 h. Raji cells were collected by centrifugation at 1400 rpm for 3 mins. […] The cells were rinsed twice with PBS+1% FBS and analyzed on an iQuePlus flow cytometer.
(§4) The mean fluorescence intensity (MFI) of the control well with only fluorescent secondary antibody was used as the mean fluorescence intensity of the background value, and the multiple of the mean fluorescence intensity of the sample and the mean fluorescence intensity of the background value was used to evaluate the binding strength of the VHH single-domain antibody to Raji cells.

[13] = target: T7, human CD47 on the cell membrane surface …; experiment: FACS on Raji cells, VHH 5 µg/mL
Method: as §2, §3, §4

[14] = target: T5, Human CD47 recombinant protein (Human …); experiment: competition ELISA: huCD47-His coated, VHH against 5 nM SIRPα-mIgG1
Method: 100 μl of 1 μg/mL huCD47-His antigen (purchased from ACRO Biosystems, Cat. No. CD7-H5227) was add to a 96-well plate, and coated overnight at 4° C. The plate was washed three times with 250 μl of PBST, and added 100 μl of purified VHH to the final concentrations of 500, 50, 5, and 0.5 nM, respectively, and incubated at room temperature for 1 h. […] After washing the plate three times with PBST, goat anti-mouse HRP-conjugate (purchased from Invitrogen, Cat. No. 31430) diluted 1:5000 was added and incubated for 45 mins. After washing the plate three times with 250 μl of PBST, TMB (purchased from Cell Signaling Technology, Cat. No. 7004) as a chromogenic substrate was added and developed color for 10 mins. After quenching the reaction with 0.5M HCl, data was read on a microplate reader.

[15] = target: T7, human CD47 on the cell membrane surface …; experiment: FACS on Raji cells, VHH 0.5 µg/mL
Method: as §2, §3, §4

B1: control antibody 5F9 (antibody, human IgG4 S228P, kappa)
heavy: not shown
light: DVLMTQTPLSLPVSLGDQASISCRSSQSIVYSNGNTYLGWYLQKPGQSPKLLIYKVSNRFSGVPDRFSGSGSGTDFTLKISRVEAEDLGVYHCFQGSHVPYTFGGGTKVEIKRTVAAPSVFIFPPSDEQLKSGTASVVCLLNNFYPREAKVQWKVDNALQSGNSQESVTEQDSKDSTYSLSSTLTLSKADYEKHKVYACEVTHQGLSSPVTKSFNRGEC
notes: also called 5F9 antibody
[1]
  EC50 (read off the curve): ~0.02 µg/mL
[2]
  EC50: 0.01 to 0.03 µg/mL
CD47 on human platelets [3]
  EC50 (read off the curve): ~0.02 µg/mL
[4]
  IC50 (read off the curve): ~0.3 µg/mL
CD47 on human platelets [5]
  EC50 (read off the curve): ~0.8 µg/mL
[6]
  Kd: 7.68 nM
  koff: 0.055 s⁻¹
  kon: 7.16e+06 M⁻¹ s⁻¹
[7]
  EC50 (read off the curve): ~2 nM
[8]
  EC50 (read off the curve): ~0.5 µg/mL
[9]
  EC50 (read off the curve): ~0.3 µg/mL
[10]
  EC50 (read off the curve): ~0.3 µg/mL
[11]
  EC50 (read off the curve): ~0.03 µg/mL

B2: DX-36699 VHH single-domain antibody (VHH)
VHH: DVQLQASGGGSVEAGGSLTLSCLASGFYNMRWYRQAPGNERELVARIGIGGSTDYADSVKGRFTISRGNAKNMVHLQMNSLKPEDTAVYYCWGGGYWGQGTQVTVSS
notes: purified from E. coli (NiNTA)
[12]
  Mean fluorescence intensity (multiple): 27.2 fold
[13]
  Mean fluorescence intensity (multiple): 152 fold
[14]
  IC50: 15 nM
[15]
  Mean fluorescence intensity (multiple): 61.4 fold

B3: DX-36698 VHH single-domain antibody (VHH)
VHH: QVQLVESGGGLVQAGGSLRLSCAASVRTFSIYAMGWFRQAPGKDREFVGAISGRGYTTYYVDSVKGRFTISRDNAKNTVYLQMNSLKPEDTAVYYCAADLYGSRRYADRESYDYWGQGTQVTVSS
notes: purified from E. coli (NiNTA)
[12]
  Mean fluorescence intensity (multiple): 43.5 fold
[13]
  Mean fluorescence intensity (multiple): 204 fold
[14]
  IC50: 616 nM
[15]
  Mean fluorescence intensity (multiple): 142 fold
